Experimental data as given in PMC12057046, “Elucidation of short linear motif-based interactions of the MIT and rhodanese domains of the ubiquitin-specific protease 8” (Biology Direct, 2025).

B1: KIAA1614 peptide 568-583 (uncharacterized protein KIAA1614), 16-mer library wild type / USP8 rhodanese domain (ubiquitin carboxyl-terminal hydrolase 8, residues 174-317) (parent)
chain 1: GMERVLGGLSSPLRLL
chain 2: KCETKEKGAITAKELYTMMTDKNISLIIMDARRMQDYQDSCILHSLSVPEEAISPGVTASWIEAHLPDDSKDTWKKRGNVEYVVLLDWFSSAKDLQIGTTLRSLKDALFKWESKTVLRNEPLVLEGGYENWLLCYPQYTTNAKV

Variants of: B1
Experiment: peptide-phage display deep mutational scan (M13, 16-mer library, displayed with a C-terminal GGGSG linker encoded by the 3' flank) selected against the GST-tagged USP8 rhodanese domain, four rounds; NGS counts summed over selection …
Conditions: with USP8 rhodanese domain (ubiquitin carboxyl-terminal hydrolase 8, residues 174-317), 10 µg GST-bait on MaxiSorp, pre-cleared on GST, 2 h at 4 °C, five washes with 0.05% Tween 20 in PBS, not graded, scale: average over two replicas of the peptide's fractional NGS count

Screen value, by site and new letter:
chain 1 S11: N 0.0195; E 0.000128; R 6.32e-06; F 2.53e-05; T 0.000682; V 2.18e-05; Y 6.32e-06; A 1.26e-05; D 0.0401
chain 1 V5: K 6.6e-05; G 0.00207; I 9.76e-05; H 0.0085; Y 0.00426; M 0.00268; F 0.0191; Q 0.014; P 0.00189; L 0.000344; S 0.000158; A 0.000433; D 0.0242; N 0.00579; W 0.011; E 0.0217; R 0.000121; T 0.0104
chain 1 R14: Y 0.000377; W 0.00337; V 0.0436; T 0.00135; S 0.00245; Q 3.44e-05
chain 1 S10: P 1.55e-05; A 6.32e-06; I 6.32e-06; V 6.32e-06; E 1.55e-05; H 0.00191
